In publication PMC6378967:

B1: angiotensinogen (AGT): N14Q (protein)
parent chain: MAPAGVSLRATILCLLAWAGLAAGDRVYIHPFHLVIHNESTCEQLAKANAGKPKDPTFIPAPIQAKTSPVDEKALQDQLVLVAAKLDTEDKLRAAMVGMLANFLGFRIYGMHSELWGVVHGATVLSPTAVFGTLASLYLGALDHTADRLQAILGVPWKDKNCTSRLDAHKVLSALQAVQGLLVAQGRADSQAQLLLSTVVGVFTAPGLHLKQPFVQGLALYTPVVLPRSLDFTELDVAAEKIDRFMQAVTGWKTGCSLMGASVDSTLAFNTYVHFQGKMKGFSLLAEPQEFWVDNSTSVSVPMLSGMGTFQHWSDIQDNFSVTQVPFTESACLLLIQPHYASDLDKVEGLTFQQNSLNWMKKLSPRTIHLTMPQLVLQGSYDLQDLLAQAELPAILHTELNLQKLSNDRIRVGEVLNSIFFELEADEREPTESTQQLNKPEVLEVTLNRPFLFAVYDQSATALHFLGRVANPLSTA
B2: angiotensinogen (AGT): N4 (protein)
parent chain: B1 parent chain

Experiment: steady-state kinetics, released Ang I immunoassay
Conditions: glycan lost; control: fully glycosylated WT AGT

Protein | other: proteolytic processing, kcat_Km
B1 | increases, 0.64 ± 0.03 vs 0.25 ± 0.01, 0.64 ± 0.03 (252%)
B2 | increases, 0.65 ± 0.08 vs 0.25 ± 0.01, 0.65 ± 0.08 (255%)
